Test results reported in IntAct's records for PubMed 25609649.

B1: F-box/WD repeat-containing protein 11 (Homo sapiens), Q9UKB1 (parent)
chain: MEPDSVIEDKTIELMCSVPRSLWLGCANLVESMCALSCLQSMPSVRCLQISNGTSSVIVSRKRPSEGNYQKEKDLCIKYFDQWSESDQVEFVEHLISRMCHYQHGHINSYLKPMLQRDFITALPEQGLDHIAENILSYLDARSLCAAELVCKEWQRVISEGMLWKKLIERMVRTDPLWKGLSERRGWDQYLFKNRPTDGPPNSFYRSLYPKIIQDIETIESNWRCGRHNLQRIQCRSENSKGVYCLQYDDEKIISGLRDNSIKIWDKTSLECLKVLTGHTGSVLCLQYDERVIVTGSSDSTVRVWDVNTGEVLNTLIHHNEAVLHLRFSNGLMVTCSKDRSIAVWDMASATDITLRRVLVGHRAAVNVVDFDDKYIVSASGDRTIKVWSTSTCEFVRTLNGHKRGIACLQYRDRLVVSGSSDNTIRLWDIECGACLRVLEGHEELVRCIRFDNKRIVSGAYDGKIKVWDLQAALDPRAPASTLCLRTLVEHSGRVFRLQFDEFQIISSSHDDTILIWDFLNVPPSAQNETRSPSRTYTYISR
partner: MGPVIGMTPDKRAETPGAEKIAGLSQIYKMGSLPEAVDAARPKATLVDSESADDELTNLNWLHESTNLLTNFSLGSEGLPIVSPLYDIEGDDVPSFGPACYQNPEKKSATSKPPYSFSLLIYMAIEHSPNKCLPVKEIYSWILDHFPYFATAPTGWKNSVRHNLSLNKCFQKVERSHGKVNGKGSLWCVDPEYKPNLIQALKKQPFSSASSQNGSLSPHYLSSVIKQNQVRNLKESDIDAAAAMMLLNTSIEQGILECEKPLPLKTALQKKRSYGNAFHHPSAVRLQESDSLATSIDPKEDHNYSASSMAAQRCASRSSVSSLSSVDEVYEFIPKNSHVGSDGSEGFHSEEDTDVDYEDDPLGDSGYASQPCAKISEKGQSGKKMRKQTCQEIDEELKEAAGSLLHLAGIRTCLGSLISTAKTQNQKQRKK

Variants of: B1
Conditions: with foxn2_human FOXN2, P32314
In the case of L474A, the “effect of a mutation on the interaction” value is reported as “disrupting interaction”.
